Legend:
[1] = tested on: MBP specific rat T cell line (NBI); test: Antigen-specific T cell line proliferation assay; type: cell-based; conditions: three days, [3H]-thymidine; analogues at 20-120 μM; FIG. 3
Experimental: FIG. 3 is a graph displaying the proliferative response of the T cell line NBI to position 91-substituted analogues. Ten different substitutions were tested. The proliferative response of NBI in response to concentrations of analogues ranging from 0 to 150 μM was determined. Proliferation is shown as counts per minute. Standard errors of the mean were less than ±10%. MBP 87-99; peptides from human myelin basic protein containing residues 87 to 99; K, lysine; R, arginine; N, asparagine; H, histidine; L, leucine; S, serine; G, glycine; k, D-lysine; E, glutamic acid; F, phenylalanine; and A, alanine.
In the direct proliferation assay, MBP (87-99) reactive T cell lines may be used as target cells. T cell lines are established from lymph nodes taken from rats injected with MBP (87-99). […] After 5 to 6 passages in this manner, the proliferative potential of the cell lines are determined. […] Cultures are harvested and incorporated counts determined. Mean CPM and standard error of the mean are calculated from triplicate cultures. […]
For this antigen-specific proliferation assay, T cell lines as established in Example 3 were used. […] Cultures were harvested on fiberglass filters and the proliferative response expressed as CPM±SD or as stimulation index (SI) (mean CPM from test cultures divided by mean CPM from control cultures).

[2] = tested on: lymph node cells (LNC) reactive to MBP (87-99); test: Antigen-specific lymph node cell proliferation assay; type: cell-based, Lewis rat; conditions: 10 μM peptide, 3 days, [3H]-thymidine; FIG. 4
Experimental: FIG. 4 is a graph displaying the proliferative response of MBP-reactive lymph node cells to position 91-substituted analogues. Two different substitutions were tested. The proliferative response of lymph node cells to 10 μM of MBP (87-99), motilin, A91 or K91 was determined. Proliferation is shown as counts per minute. BKG, no peptide added; 87-99, MBP (87-99); motilin, an unrelated peptide; A91, peptide analogue with alanine at position 91; K91, peptide analogue with D-lysine at position 91.
As an alternative to the use of T cell lines as described above, draining lymph node cells from Lewis rats immunized with MBP (87-99) may be used. […] Cultures are harvested on fiberglass filters and counted in a scintillation counter. Mean CPM and the standard error of the mean are calculated from data determined in triplicate cultures. […]
For the assay, 100 μl of the lymph node suspension was added to 96-well flat-bottom wells in the presence of an equal volume of medium containing 10 μM of various peptides (including: motilin as a negative control; MBP87-99; medium only, or alanine or D-amino acid substituted at position 91). […] The plates were then harvested with a Matrix filtermate harvester (Packard) and counted using an Automatic Direct Beta Counter (Packard). Mean cpm and the standard error of the mean were calculated from triplicate wells.

EAE = conditions: rat, in vivo
Experimental: In addition, as a safety measure, but not essential to this invention, suitable peptide analogues may be tested for direct induction of EAE. As described in detail in Example 2, various amounts of peptide analogues are injected at the base of the tail of rats, and the rats examined daily for signs of EAE. A peptide analogue which is not considered to cause EAE has a mean cumulative score of less than or equal to 1 over seven days when 1 mg (5 mg/kg) in complete Freund's adjuvant is injected.
MBP peptides and analogues were dissolved in phosphate-buffered saline (PBS) and emulsified with an equal volume of incomplete Freund's adjuvant supplemented with 4 mg/ml heat-killed Mycobacterium tuberculosis H37Ra in oil (Difco Laboratories, Inc., Detroit, Mich.). Rats were immunized subcutaneously in the hind foot pads with 0.1 ml of the emulsion and were monitored for clinical signs daily by an observer blind to the treatment protocol. For intravenous injections MBP peptides and analogues were dissolved in normal saline. EAE was scored as follows: 0, clinically normal; 1, flaccid tail; 2, hind limb paralysis; 3, front and hind limb paralysis.
The ability of peptide analogues to cause EAE is assessed in vivo. Rats were injected with MBP (87-99) or (91K>A) peptide analogue as described in Example 2. Animals were monitored daily for evidence of EAE. Rats receiving MBP (87-99) had 100% incidence (18/18 rats) of EAE with a mean maximum clinical score of 2.4±0.2. In contrast, 0/12 rats receiving the peptide analogue (91k>A) had EAE.

multiple sclerosis = conditions: human, in vivo; cited from earlier work

Molecule: CC[C@H](C)[C@H](NC(=O)[C@@H]1CCCN1C(=O)[C@@H](NC(=O)[C@@H](N)Cc1ccccc1)C(C)C)C(=O)N[C@@H](Cc1ccccc1)C(=O)N[C@H](C(=O)N[C@@H](Cc1ccc(O)cc1)C(=O)NCC(=O)N[C@@H](CCC(=O)O)C(=O)N[C@@H](CC(C)C)C(=O)N[C@@H](CCC(N)=O)C(=O)N[C@@H](CCCNC(=N)N)C(=O)N[C@@H](CCSC)C(=O)N[C@@H](CCC(N)=O)C(=O)N[C@@H](CCC(=O)O)C(=O)N[C@@H](CCCCN)C(=O)N[C@@H](CCC(=O)O)C(=O)N[C@@H](CCCNC(=N)N)C(=O)N[C@@H](CC(N)=O)C(=O)N[C@@H](CCCCN)C(=O)NCC(=O)N[C@@H](CCC(N)=O)C(=O)O)[C@@H](C)O [motilin, reference compound]
- proliferation of the MBP specific rat T cell line (in words) [1]: does not stimulate proliferation at any dose
- proliferative response of MBP (87-99)-reactive lymph node cells (in words) [2]: failed to respond as well

Molecule: MBP(68-88): EAE-inducing myelin basic protein peptide from a different region (KRTADPKNAWQDAHPADPGSR; UniProt P02686 68-88, looked up, fragment) [reference compound]
- EAE Incidence (EAE): 6/6
- EAE Mean Maximum Clinical Score (EAE): 3 ± 0

B1: IFN-γ: cytokine administered to MS patients in a pilot study (protein, UniProt P01579 24-161, looked up)
Interferon gamma: QDPYVKEAENLKKYFNAGHSDVADNGTLFLGILKNWKEESDRKIMQSQIVSFYFKLFKNFKDDQSIQKSVETIKEDMNVKFFNSNKKKRDDFEKLTNYSVTDLNVQRKAIHELIQVMAELSPAAKTGKRKRSQMLFRG
- patients with a clinical exacerbation within one month after initiation of treatment (multiple sclerosis): 7 of 18
- specific response to MBP (in words) (multiple sclerosis): increase

Reference: patent publication US6489299B2, “Methods for treatment of multiple sclerosis using peptide analogues at position 91 of human myelin basic protein” (Stanford University Medical Center, priority 1994, dated 2002)
